Data reported in paper PMC9860674.

Target: Tle3^AIEC (type VI lipase effector 3 of adherent-invasive Escherichia coli LF82) (Escherichia coli AIEC LF82)
Assay: SEC; purified Tle3 and Tli3 mixed at a molar ratio of 1:1.3; Superdex 200 16/60 in Hepes 10 mM pH 6.8, NaCl 150 mM; apparent molecular mass 100 kDa against a theoretical 101.9 kDa

## Tli3^AIEC (type VI lipase immunity protein 3 of adherent-invasive Escherichia coli LF82) (natural protein)
  stoichiometry N: 1
